Assay results from article PMC8274395 (Biochemistry, 2021).

Target: the molecule itself
Assay: crystal structure

B1: Cj1441, UDP-glucose 6-dehydrogenase from Campylobacter jejuni NCTC 11168 (enzyme)
chain: MKIVIVGIGYVGLANAILFSKNNENEVVLLDIDENKIQSINNHKSPIKDKLIEKFFVQNISKLHATSNIKEAYFNADFAVIATPTDYDEQLNFFDTRSIENVLKDIKNINSKINVIIKSTVPIGYTKTIKQKFNMSNIVFSPEFLREGSALYDSLYPSRIIIGDKSVLGKTIGDLFLKNIEKKNVDIFYMDSDEAESVKLFSNTYLAMRVGFFNEVDSYARKHNLNSADIIKGISADDRIGKYYNNPSFGYGGYCLPKDTKQLLANFYNIPNSLIKAIVETNEIRKKFITQLILEKKPNILGIYRLIMKQNSDNFRNSVIIDIIKYLQEYNSNIELIIYEPLVKEKKFLNIKVENDFNVFGAKVDLIIANRFDDKLKEIKDKVFSADVFYTDI
  binding result: binds
